Data from the RNAGym collection of RNA variant scans (doi:10.1073/pnas.2313332121).
This sample holds only a part of the variants without activity.

B1: TPR 5TU (parent)
chain: GGAUCUUCUCGAUCUAACAAAAAAGACAAAUCUGCCACAAAGCUUGAGAGCAUCUUCGGAUGCAGAGGCGGCAGCCUUCGGUGGCGCGAUAGCGCCAACGUUCUCAACUAUGACACGCAAAACGCGUGCUCCGUUGAAUGGAGUUUAUCAUG

Variants of: B1
Test: polymerase ribozyme fitness, log enrichment relative to wild type (log ratio); higher = more active; in vitro selection for triplet polymerase activity
Summary of the method: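 Fitness measures genotype enrichment against wild-type enrichment on a logarithmic scale, with inverse-variance-weighted averaging of replicates. The logarithm is base 2, and genotypes were kept only with ≥10 input reads and ≥1 read per output in Illumina sequencing. The sequenced libraries came from one triplicate in vitro selection round, including frozen incubation at −7 °C, of PCR-built, transcribed mutant libraries of each subunit of a heterodimeric triplet polymerase ribozyme.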

Variant	polymerase ribozyme fitness (log ratio)
A16U U44G G48A C87U U102G C131U C132G	≤ -4.2
A16G C18U A30U C35U U55A G71C C93U A97C C116A G141U	≤ -4.2
A16U G46U G59C C76G G84U C85U U102C A138U	≤ -4.2
A17C A47C G94C	-0.464
A17C A26G A41C C54A C72U C87A G100C G143U	≤ -4.2
A16G C43A U55A G80C G117U G133C	≤ -4.2
A16U C116A	-0.257
A16G G48U G133U	-3.99
A16U A39C A49C C96U C125U	≤ -4.2
A16U U55G C87U	-2.67
A16U C57A	-1.96
A16U C87A G100A	≤ -4.2
A17C G59A A60C G81C C95U C116U	0.238
A16U G34U G71A G94A U102G U151A	≤ -4.2
A16G U148C	-2.77
A16U C27U A29C A49G C95U C105G U146A	≤ -4.2
A16G C32G A41U G80C C99U A110U U127A G143A	≤ -4.2
A16U U56A C96A	-3.23
A17C U55A U56A C85G A115G	-3.1
A17C C57A C114U	-1.86
A16U A39G A89C C95U G152C	≤ -4.2
A16U C27G A28U U31C G74U U82A	≤ -4.2
A17C C18A C57A C95U C99G A113G G133A G152U	-4.06
A16U A19U A39U U61A A113G G128A G141C	≤ -4.2

Variant	polymerase ribozyme fitness (log ratio)
A17C A28U U44C A52U G94U A97G A142G	≤ -4.2
A16G C27U	-2
A17C C38A A47G G92C	-0.622
A16G U144G	0.162
A16G C35G U53A C57U G84U C105G A150U	≤ -4.2
A16G A26U U31C U82A A106U C131A U139G G141C	≤ -4.2
A16G G83U U139G	-1.17
A16U A47U U55A C87U	-2.97
A17C A110U	-4
A16U C38A C75A C114U G143U	≤ -4.2
A16U A41G C51U G74C C95U C103U C118U G133A	≤ -4.2
A16G A20C A22C G25A A37U A40C C75U C96U U130G A138U U145G	≤ -4.2
A16G C35U C116G	-1.98
A16G C38U G50C U55A C57U C85G A120G A137U G143C	≤ -4.2
A16G G81A G83A C93U G128C U134G	≤ -4.2
A16U A19U A40G	≤ -4.2
A17C A23U G59U G84A U90C U151A	≤ -4.2
A16U U56A G83A U109C U111G	≤ -4.2
A17G A22C U61A G84U C96U U109A U111A G141A	≤ -4.2
A16G C43A U53C G70A A73G	≤ -4.2
A16U C57A C99G U104C	-3.73
A17C C36U A47G C54A C85A C118A U127G U134C U151A	≤ -4.2
A16U A24U C27U A39U U55A C76A	≤ -4.2
A17G A21G C96G	0.392

Variant	polymerase ribozyme fitness (log ratio)
A16U G25C A52C C96U	-4.11
A17C U33C G42C C51A U53A U139G A142G	≤ -4.2
A16G C43G C57U G84A C85A A91C U127C	≤ -4.2
A17C G133A	-3.15
A17C G25A G62U G117U	-2.71
A17G A21G C57U C96A A137U A138G	≤ -4.2
A16G C35U	-1.36
A16U U31C C38U C114U	-3.95
A16G C57A G62A C96U	-1.89
A16U C38U A60C G80U A97G	≤ -4.2
A16U C51A A73G C85U A122C	≤ -4.2
A16G G80C G81A A97G U102C G136C C149U	≤ -4.2
A16U A39U G84A G92U C103U C149G U151C	≤ -4.2
A16G G46U	-1.19
A16G C43U C79U C132U	≤ -4.2
A16U G83A A106G A107C C118U C123G C129G A150G	≤ -4.2
A16G G25U A150G	-3.86
A16U G86A A91U A106G C108U C129A	≤ -4.2
A16G A20U G46U A60G A138C	≤ -4.2
A17C G74C C87U G92C C105G G136U	≤ -4.2
A17C C18G G58A C69G C85U	-2.39
A17C A24G A39U U56A C103G G136U	≤ -4.2
A16G A22G C27A A49C C57U G59C C85U C118A C129U	≤ -4.2
A16U G84U G86U C93G U144C	-3.51

Variant	polymerase ribozyme fitness (log ratio)
A16U U53C A73G G94C A150C	≤ -4.2
A16G G83U G92A C96U	≤ -4.2
A17G A21G A29G G81A C93G G112U C118A U135A	≤ -4.2
A16U A40G U44A G71C C85A G141A G143U	≤ -4.2
A17G A20C A30G G46A G59U G67C G68U G70U C96G	≤ -4.2
A16U G92U	-2.29
A17C A20C C108G	≤ -4.2
A16U G74A G84U U90C C118U A121U	≤ -4.2
A17C A40G C54A G83A G124A	≤ -4.2
A17G A28U G71A A121G	≤ -4.2
A16G G83U A107U A142C	≤ -4.2
A16G C116A	0.283
A17C A19U G58A A97G U102G A119G	-3.63
A16U U61A C95U	-3.06
A16G G50A A142C	-3.93
A16G C18U C27U A28U A40C G50C U56A G84C C125A G143A U146G	≤ -4.2
A16G A20C C35A U44A A47G C129U G140C	≤ -4.2
A16U A29U U77G C85G C116U C125A U134C	≤ -4.2
A16G A37C G46A G50C C87A G92A A138C A147U	≤ -4.2
A16U C54A G81A C85U C114U G136U G143U C149G	≤ -4.2
A16U A60C U61A A66C	≤ -4.2
A16G C32U C72A C76U C85G A107U	≤ -4.2
A17C C32U	-1.61
A16G C54U	-0.601

Variant	polymerase ribozyme fitness (log ratio)
A16U G81A	-1.95
A16G C93G	-4.02
A16G A20G A120C	-1.84
A16G A28G G59A G80A G83C C87U	≤ -4.2
A17C A30G C79G C87G C96G C105A	≤ -4.2
A16G A91U	≤ -4.2
A17C C27A A52G A60U C69U C85A C95G C125A	≤ -4.2
A17G A29U G67U G100A C123G C132G	≤ -4.2
A17G A21C U44A A91C C108U	≤ -4.2
A16G U53A U146G	-2.19
A16G A41C U55G A142C	-3.52
A17C A40G G50C C57U C108U G133C	≤ -4.2
A16U A47G C51U C95A C114U	-3.93
A17C A21U G25U G84A	-2.95
A16U C125A	-2.06
A16U C32A C35G A47C G58C G68A G70U C96G G126C	≤ -4.2
A16U A21G C85G C93A C116A A150U	≤ -4.2
A16U A19U A26C A37C G74C A89C G94A C108U A113G G136A	≤ -4.2
A16U A17U G48U U104G G124A C131G	-4.15
A17G A20U C57G G84U C93A C96G A119U G141A	≤ -4.2
A17C G48C C93G	-3.01
A16U A22C C27A C125A A150G	≤ -4.2
A16U A19U	-2.39
A16U C79G	≤ -4.2

Variant	polymerase ribozyme fitness (log ratio)
A16U A29G A30U U53A U55A G62C U77G C116U	≤ -4.2
A16U A30C U44A G88A C105U U109A	≤ -4.2
A16G A20C C69G C149G	-4.02
A16U C85A	-2.74
A16U C85G	-3.36
A16U A106G U144A	-2.13
A17G A29C A107U U135G	≤ -4.2
A16U A22U G117A C132A U151G	≤ -4.2
A16G A49U C63U C72U G88C G141C	≤ -4.2
A16G U33G U90G C114U G117U A138C A150G	≤ -4.2
A17G A23G G48C A91U U104A	≤ -4.2
A16U U61G G81A	-1.91
A16G A73U G94U	-2.22
A17C G92C	0.012
A16G A29U U45A C54G C87G C125G	≤ -4.2
A17C U102A	-0.663
A16G A21C G48C C54A G58U C93U A122G	-3.83
A17C A21U C51U G59C C95U A106U G136C U151G	≤ -4.2
A17C U61G C85U G126A G140U U151A G152C	≤ -4.2
A17C A41U U56A C99U A121G A147G	-3.04
A16U C69A U145G	-3.75
A17C C38A U55G G86U C116G A122G	-2.93
A16U A29U U45G U61G C93A	≤ -4.2
A17G A20C A24C U44C A66U C103U U134G	≤ -4.2

Variant	polymerase ribozyme fitness (log ratio)
A17C G50A G84U G143C U144G	≤ -4.2
A16U A17C U44C U56A C76U G88U C114A	≤ -4.2
A16U C18U U44G U82A C93U C99A A106G A142C	≤ -4.2
A16U A64U A66U G94A C108U A150G	≤ -4.2
A16U U44A G71C C96G A106U U127C G133U G141C U148C	≤ -4.2
A16G C38A U56G C96U C103U C149G	≤ -4.2
A17C C32G C54A C76G G80A C93A C96A U111A	≤ -4.2
A16U C43G G84C	≤ -4.2
A16G C27U A28G C43U U53A C57A U82G C93U G143C	≤ -4.2
A16G A23G A37U G86A U135A	≤ -4.2
A17C G62U C93G	-3.31
A17C A28U G46U A98U A107G A113G G133U	≤ -4.2
A17C G88A A91G U148A	-4.03
A17C A39U G58A C95A G141C	-2.82
A16U C27U C57A C93A A107C C125A U146G	≤ -4.2
A17G A39C A40C A73G G94C U134G	≤ -4.2
A17C C54A	-1.11
A17C C36U G68C G86A U139A	≤ -4.2
A16G U55A G83A G117U	-1.7
A16U C96U	-2.07
A16U G143C	-3.63
A17C A19U	0.475
A16G C57A	-0.592
